Numbering of substitutions follows the chain as printed. Read-outs that look alike come from different tables or passages of the source. One block for each binder: values may come before it.
Columns and labels:
[1] = target: T1, human DKK1 antigen (Sino Biological, 10170-H08H) (human, UniProt O94907 32-266); test: ELISA blocking of DKK1-LRP6
T1 chain: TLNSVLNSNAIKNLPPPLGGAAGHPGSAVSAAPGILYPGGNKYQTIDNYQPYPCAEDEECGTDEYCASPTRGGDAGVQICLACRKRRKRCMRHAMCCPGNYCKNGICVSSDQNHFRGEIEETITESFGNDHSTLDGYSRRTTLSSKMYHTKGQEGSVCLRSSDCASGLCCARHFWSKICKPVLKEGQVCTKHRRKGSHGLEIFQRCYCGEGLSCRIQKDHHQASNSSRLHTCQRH

[2] = target: T1, human DKK1 antigen (Sino Biological, …); test: ELISA binding
[3] = target: T1, human DKK1 antigen (Sino Biological, …); test: ELISA blocking of DKK1-LRP6
[4] = target: T1, human DKK1 antigen (Sino Biological, …); test: ELISA blocking of DKK1-LRP6
[5] = target: T2, human DKK1 antigen (Sino Biological, 10170-H08H) (human, UniProt O94907 32-266); test: competitive ELISA against LRP6 for DKK1
T2 construct: also called huDKK1; hDKK1
T2 sequence (looked up): T1 chain

IC50 [1]: 1.43 µg/mL
B1: chi-29 (antibody, V domains shown)
VH: QVQLKQSGPGLVQPSQSLSITCTVSGFSLTAFDVHWVRQSPGKGLEWLGVIWIGGTTDYNGAFISRLSISKDNSKSQVFFKMNSLQAKDTAIYYCARKRGNYYNMDYWGQGTSVTVAS
VL: SQAVVTQESALTTSPGETVTLTCRSSTGTVTTTNYANWVQEKPDHLFTGLIGGTNNRAPGVPARFSGSLIGDKAALTITGAQTEDEAIYFCALWYSNHWVFGGGTKLTVL

EC50 [2]: 0.0222 µg/mL
IC50 [3]: 0.176 µg/mL
B2: humanized antibody hu64 (antibody, V domains shown)
VH: QVQLVQSGAEVKKPGSSVKVSCKASGYTFTSYNMLWVRQAPGQGLEWMGVIFPGNGDTSYNPKFKGRVTLTADKSSSTAYMELSSLRSEDTAVYYCARDGYPSMDYWGQGTLVTVSS
VL: DTQLTQSPSFLSASVGDRVTITCITSTDIDDDMNWYQQKPGKAPKLLISEGNSLRPGVPSRFSSSGSGTEFTLTISSLQPEDFATYYCLQFNNMPLTFGQGTKLEIKR

EC50 [2]: 0.0238 µg/mL
IC50 [3]: 0.155 µg/mL
B3: humanized antibody hu52 (antibody, V domains shown)
VH: B2 VH with S16A, G44R
VL: B2 VL

EC50 [2]: 0.0234 µg/mL
IC50 [3]: 0.239 µg/mL
B4: humanized antibody hu50 (antibody, V domains shown)
VH: B2 VH with S16A, G44R
VL: B2 VL with T2I, L4M, F10S, L11V, S64G, E70D

EC50 [2]: 0.01 µg/mL
IC50 [3]: 0.193 µg/mL
B5: humanized antibody hu2 (antibody, V domains shown)
VH: EVQLLQSAAEVKRPGESLRISCKTSGYTFTEYTMHWVRQMPGKELEWMGVIDPSNGDTSYNQKFKGHVTISADKSSSTAYLQWSSLKASDAAMYYCSSTTGPWFASWGQGTLVTVSS
VL: DIQMTQSPSSLSASVGDRVTITCRASQDISNYLNWYQQKPGKAPKLLIYYKSRLHSGVPSRFSGSGSGTDFTLTISSLQPEDFATYYCQQVHTLPPTFGQGTKLEIKR

EC50 [2]: 0.0138 µg/mL
IC50 [3]: 0.169 µg/mL
B6: humanized antibody hu3 (antibody, V domains shown)
VH: B5 VH
VL: EIVMTQSPPTLSLSPGERVTLSCRASQDISNYLNWYQQKPGQAPRLLIYYKSRLHSGIPARFSGSGSGTDFTLTISSLQPEDFAVYYCQQVHTLPPTFGQGTKLEIKR

IC50 [1]: 1.79 µg/mL
B13: chi-2 (antibody, V domains shown)
VH: EVQLQQSGPELVKPGASVKIFCKTSGYTFTENTMHWVKQTHGKSLEWIGGINPHKGGTSYNQKFKGKATLTVDKSSSTACMELRSLTSEDSTVYYCARDWLGAMDYWGQGTSVTVSP
VL: MSSAQFLGLLLLCFQGTRCDIQMTQTTSSLSASLGDRVTINCRASQDISNYLNWYQQKPDGTVKLLIYYKSRLHSGVPTRFSGSGSGTDFSLTISNLVQEDIATYFCQQVHTLPPTFGGGTKLEIK

IC50 [1]: ~0.246 µg/mL
B14: chi-22 (antibody, V domains shown)
VH: QVTLKESGPGILQPSQTLSLTCSFSGFSLSTSGMGVGWIRQPSGKGLEWLAHIWWDDVKRYNPALKSRLTISKDTSSSQVFLKIASVDTTDTASYYCSRIARSPTGFAYWGQGTL
VL: QIVLTQSPVIMSASPGEKVTMTCSASSSVSYMYWYQQKPGSSPRLLIYDTSNLASGVPVRFSGSGSGTSYSLTISRMEAEDAATYYCQQWSSYPPALTFGAGTKLELK

Continued, binder first:

B7: hybridoma antibody 19O15.6 (antibody, V domains shown)
VH: QIQLVQSGPELKKPGETVKISCKASGYTFTNHGMNWVKQAPGKGLKWMGWINTNTGEPTYADDFKGRFAFSLETSASTAYLQINNLKNEDTATYFCARRGYGFPYYYTMDYWGQGTSVTVSS
VL: QAVVTQESALTTSPGETVTLTCRSSTGAVTTRNYANWVQEKADHLLTGLIGGTKNRAPGVPARFSGSLIGDKAALTITGAQTEDEAKYFCALWYSNRLVFGGGTKLTVL
notes: Murine hybridoma antibody
IC50 [4]: ~10.1 µg/mL
binding result [5]: binds

B8: hybridoma antibody 18J21.1 (antibody, V domains shown)
VH: B1 VH
VL: B7 VL with A28T, R32T, A42P, L46F, K54N, K87I, R97H, L98W
notes: Murine hybridoma antibody
binding result [5]: binds

B9: hybridoma antibody 17F14.3 (antibody, V domains shown)
VH: QVQLQQPGAELVKPGASVKMSCKASGYTFTSYNMLWVKQTPGQGLEWIGVIFPGNGDTSYNPKFKGKAALTADKSSSTAYMQLSSLTSEDSAVYYCARDGYPSMDYWGQGTSVTVSS
VL: ETIVTQSPASLSVATGEKVTIRCITSTDIDDDMNWYQQKPGEPPKLLISEGNSLRPGVPSRFSSSGYGTDFVFTIENTLSEDVADYYCLQFNNMPLTFGAGTKLELK
notes: Murine hybridoma antibody
IC50 [4]: 0.529 µg/mL
binding result [5]: binds

B10: BHQ-880 (antibody, V domains shown)
VH: QVQLVESGGGLVQPGGSLRLSCAASGFTFSSYWMSWVRQAPGKGLEWVSGISYSGSNTHYADSVKGRFTISRDNSKNTLYLQMNSLRAEDTAVYYCARMGIDLDYWGQGTLVTVSS
VL: DIALTQPASVSGSPGQSITISCTGTSSDVGGFNYVSWYQQHPGKAPKLMIHDGSNRPSGVSNRFSGSKSGNTASLTISGLQAEDEADYYCQSWDVSPITAVFGGGTKLTVLG
IC50 [4]: 1.1 µg/mL

B11: hybridoma antibody 7M2.6 (antibody, V domains shown)
VH: EVQLQQSGPELVKPGASVRISCKTSGYTFTEYTMHWVKQSHGKSLEWIGVIDPSNGDTSYNQKFKGRATLTVDKSSSTAYMDLRSLTSEDSALYYCSSTTGPWFACWGQGTLVTVSA
VL: DIQMTQTTSSLSASLGDRVTINCRASQDISNYLNWYQQKPDGTVKLLIYYKSRLHSGVPTRFSGSGSGTDFSLTISNLVQEDIATYFCQQVHTLPPTFGGGTKLEIK
notes: Murine hybridoma antibody
IC50 [4]: 0.892 µg/mL
binding result [5]: binds

B12: hybridoma antibody 11I18.4 (antibody, V domains shown)
VH: B13 VH
VL: ETTVTQSPASLSMAIGEKVTIRCITSTDIDDDMNWYQQKPGEPPKLLISEGNTLRPGVPSRFSSSGYGTDFVFTIENMLSEDVADYYCLQSDNLPYTFGGGTKLEIK
notes: Murine hybridoma antibody
IC50 [4]: 0.459 µg/mL
binding result [5]: binds
